Assay [1] concerns the target T1, Cynomolgus TNFR2, human Fc tag protein (cynomolgus).
T1 construct: also called cyno-TNFR2-huFc
Nature of the assay: ELISA on coated cyno-TNFR2-huFc; bottom panel. Background: An ELISA detects its analyte on a solid surface through an enzyme-linked reagent.

The target in assay [2] is T2, Human TNFR2, human Fc tag protein (human).
T2 construct: also called huTNFR2-huFc; HuTNFR2-huFc
As to the kind of experiment: ELISA on coated huTNFR2-huFc, top panel (with 32A1D5); fit value of a flat control curve; unit from the axis.

The target in assay [3] is T3, human TNFR2, mouse Fc-tag (human).
T3 construct: also called hTNFR2-mFc; huTNFR2-mFc
T3 chain: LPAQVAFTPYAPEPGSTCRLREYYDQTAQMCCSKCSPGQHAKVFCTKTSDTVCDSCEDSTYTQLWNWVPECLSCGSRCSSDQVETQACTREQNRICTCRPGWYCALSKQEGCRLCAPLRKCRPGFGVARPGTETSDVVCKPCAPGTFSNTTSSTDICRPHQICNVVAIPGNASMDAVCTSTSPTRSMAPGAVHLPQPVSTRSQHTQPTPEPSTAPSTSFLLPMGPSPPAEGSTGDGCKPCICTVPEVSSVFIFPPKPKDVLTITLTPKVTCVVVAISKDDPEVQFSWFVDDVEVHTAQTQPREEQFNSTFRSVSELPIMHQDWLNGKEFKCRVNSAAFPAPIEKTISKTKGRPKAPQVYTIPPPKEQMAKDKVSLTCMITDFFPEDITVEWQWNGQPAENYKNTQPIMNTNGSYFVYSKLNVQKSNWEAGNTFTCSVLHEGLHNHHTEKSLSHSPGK
Nature of the assay: blocking ELISA: hTNFR2-mFc mixed with antibody, binding to coated TNF-alpha his tag; right panel; fit value of a flat control curve; unit from the axis [a].

Assay [4] has as its target T3, human TNFR2, mouse Fc-tag. Nature of the assay: ELISA on coated human TNFR2-mFc, left panel; fit value of a flat control curve; unit from the axis [a].
In assay [5] the target is T2, Human TNFR2, human Fc tag protein. Nature of the assay: ELISA on coated huTNFR2-huFc, middle panel (with 43B7A4); fit value of a flat control curve; unit from the axis.
Assay [6] addresses T3, human TNFR2, mouse Fc-tag. As to the kind of experiment: ELISA on coated human TNFR2-mFc, left panel; fit value of a flat control curve; unit from the axis [b].
Assay [7] deals with T4, human TNFR2 expressed on activated PBMCs (human, UniProt P20333 23-461).
T4 construct: whole, on cells; Native receptor on primary cells
T4 sequence (looked up): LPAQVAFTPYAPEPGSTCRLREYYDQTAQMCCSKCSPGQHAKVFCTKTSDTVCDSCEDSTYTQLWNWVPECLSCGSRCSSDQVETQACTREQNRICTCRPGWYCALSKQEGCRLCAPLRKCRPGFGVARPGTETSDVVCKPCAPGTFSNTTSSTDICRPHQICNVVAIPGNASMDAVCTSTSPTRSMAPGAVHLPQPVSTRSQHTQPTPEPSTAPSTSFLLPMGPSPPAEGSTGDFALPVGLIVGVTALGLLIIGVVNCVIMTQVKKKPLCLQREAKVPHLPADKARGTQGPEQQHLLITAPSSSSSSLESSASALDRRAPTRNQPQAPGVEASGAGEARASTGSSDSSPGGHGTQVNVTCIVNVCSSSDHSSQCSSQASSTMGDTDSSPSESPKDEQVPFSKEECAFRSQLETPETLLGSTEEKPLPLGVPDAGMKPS
Nature of the assay: flow cytometry on activated human PBMCs. A general note: A flow cytometer gives signals particle by particle.

B1: negative control IgG (antibody, V domains shown)
VH: QVQLVESGGGAVQPGRSLRLSCAASGFTFSSYGMHWVRQAPGKGLEWVAVILYDGSDKFYADSVKGRFTISRDNSKNTLYLQMNSLRAEDTAVYYCAKVAVAGTHFDYWGQGTLVTVSS
VL: DIQMTQSPSSLSASVGDRVTITCRASQGIRNDLGWYQQKPGKAPKLLIYAASSLQSGVPSRFSGSGSGTDFTLTISSLQPEDFATYYCQQLNSYPPTFGGGTKVEIKR
notes: also called IgG Control; IgG (Negative Control)
On to B1, for which the binding result in assay [1] is reported as “no binding (tested: about 1 nM)”; in assay [7] it was “no binding”. In addition, the 50% effective concentration (EC50) in assay [2] is ~0.102 nM; in assay [4], ~0.102 nM; in assay [5], 277 nM; in assay [6], ~3.06 nM. In addition, the 50% inhibitory concentration (IC50) in assay [3] is ~2.06 nM.

For orientation: EC50 means the concentration that produces a half-maximal response. By IC50 is commonly meant the concentration that inhibits the measured activity by half. Lower therefore signals greater potency.

The values above are taken from patent publication US11912777 (NANJING LEADS BIOLABS, dated 2024).
